Patent US20230113563A1 (SYSTIMMUNE, published 2023)

B1: human MICA (Acro, MIA-H5221) (ligand, UniProt Q29983 24-307, looked up)
chain: EPHSLRYNLTVLSWDGSVQSGFLTEVHLDGQPFLRCDRQKCRAKPQGQWAEDVLGNKTWDRETRDLTGNGKDLRMTLAHIKDQKEGLHSLQEIRVCEIHEDNSTRSSQHFYYDGELFLSQNLETKEWTMPQSSRAQTLAMNVRNFLKEDAMKTKTHYHAMHADCLQELRRYLKSGVVLRRTVPPMVNVTRSEASEGNITVTCRASGFYPWNITLSWRQDGVSLSHDTQQWGDVLPDGNGTYQTWVATRICQGEEQRFTCYMEHSGNHSTHPVPSGKVLVLQSHW
notes: Bought reagent used as analyte in solution; also called NKG2D ligand MICA

Key:
[1] = target: B1; experiment: BLI (Octet); GNC protein loaded on AHC sensors at 5 ug/ml; human MICA as analyte, 1:2 serial dilutions from 100 nM; global fit, 1:1 model
Procedure: (§1) To validate functionality of the NKG2D receptor in the D2 position, Octet binding was performed. GNC protein was loaded onto AHC sensors at 5 ug/ml, and subsequently bound to 1:2 serial dilutions (top concentration 100 nM) of human MICA (Acro, MIA-H5221).

SI-49P7 = target: T1, SI-49P7; experiment: as above
T1 construct: Penta-specific GNC: same structure as SI-49P6, but with 4-1BB ligand trimer at D4 instead of the anti-4-1BB scFv
T1 sequence (heavy, as listed by the source): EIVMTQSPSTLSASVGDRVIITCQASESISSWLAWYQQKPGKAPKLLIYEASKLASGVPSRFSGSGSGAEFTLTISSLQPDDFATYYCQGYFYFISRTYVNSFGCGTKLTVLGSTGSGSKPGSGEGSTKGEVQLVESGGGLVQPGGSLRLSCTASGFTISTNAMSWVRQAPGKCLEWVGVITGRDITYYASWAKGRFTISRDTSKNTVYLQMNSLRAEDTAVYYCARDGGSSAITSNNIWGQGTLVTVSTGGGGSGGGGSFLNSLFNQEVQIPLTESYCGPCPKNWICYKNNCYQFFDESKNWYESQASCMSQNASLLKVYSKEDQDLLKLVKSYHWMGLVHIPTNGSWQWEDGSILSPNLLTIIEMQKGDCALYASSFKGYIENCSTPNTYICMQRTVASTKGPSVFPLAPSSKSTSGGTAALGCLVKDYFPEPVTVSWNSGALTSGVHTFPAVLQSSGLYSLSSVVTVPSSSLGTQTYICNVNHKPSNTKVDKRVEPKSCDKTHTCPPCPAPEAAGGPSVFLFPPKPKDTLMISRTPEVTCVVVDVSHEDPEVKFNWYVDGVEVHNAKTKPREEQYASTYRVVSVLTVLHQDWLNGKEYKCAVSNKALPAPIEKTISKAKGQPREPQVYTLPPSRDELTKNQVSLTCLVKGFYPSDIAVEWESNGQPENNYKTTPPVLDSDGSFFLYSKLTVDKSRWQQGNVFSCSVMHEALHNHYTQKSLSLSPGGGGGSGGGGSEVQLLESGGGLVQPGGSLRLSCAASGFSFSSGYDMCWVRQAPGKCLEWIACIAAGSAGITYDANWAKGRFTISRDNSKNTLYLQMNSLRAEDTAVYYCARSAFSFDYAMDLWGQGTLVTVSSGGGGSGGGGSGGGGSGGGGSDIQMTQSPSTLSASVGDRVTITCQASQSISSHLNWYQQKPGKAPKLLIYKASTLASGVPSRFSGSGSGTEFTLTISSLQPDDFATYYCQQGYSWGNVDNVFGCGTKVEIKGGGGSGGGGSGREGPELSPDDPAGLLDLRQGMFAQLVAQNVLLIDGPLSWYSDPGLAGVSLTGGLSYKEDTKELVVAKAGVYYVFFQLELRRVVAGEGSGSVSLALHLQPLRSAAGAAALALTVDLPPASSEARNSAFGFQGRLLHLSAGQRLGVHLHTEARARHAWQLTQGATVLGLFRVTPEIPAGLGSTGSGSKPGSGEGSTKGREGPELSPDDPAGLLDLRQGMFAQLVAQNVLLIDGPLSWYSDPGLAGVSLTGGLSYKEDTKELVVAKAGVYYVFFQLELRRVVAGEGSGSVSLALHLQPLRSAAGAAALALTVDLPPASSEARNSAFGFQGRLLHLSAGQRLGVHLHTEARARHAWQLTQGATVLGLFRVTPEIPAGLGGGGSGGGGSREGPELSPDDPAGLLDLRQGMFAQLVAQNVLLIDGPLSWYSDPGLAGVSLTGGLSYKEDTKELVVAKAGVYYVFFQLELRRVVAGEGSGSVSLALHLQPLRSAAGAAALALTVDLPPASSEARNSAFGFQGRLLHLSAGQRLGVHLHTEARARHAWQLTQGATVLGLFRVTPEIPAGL
Procedure: as §1

Binder	Kd [1] [nM]	Kd (SI-49P7) [nM]
SI-49R23 (Fc fusion, Monospecific protein with NKG2D directly fused to the antibody Fc domain; Two copies are inferred from the Fc dimer) FLNSLFNQEVQIPLTESYCGPCPKNWICYKNNCYQFFDESKNWYESQASCMSQNASLLKVYSKEDQDLLKLVKSYHWMGLVHIPTNGSWQWEDGSILSPNLLTIIEMQKGDCALYASSFKGYIENCSTPNTYICMQRTVASEPKSSDKTHTCPPCPAPEAAGGPSVFLFPPKPKDTLMISRTPEVTCVVVDVSHEDPEVKFNWYVDGVEVHNAKTKPREEQYASTYRVVSVLTVLHQDWLNGKEYKCAVSNKALPAPIEKTISKAKGQPREPQVYTLPPSRDELTKNQVSLTCLVKGFYPSDIAVEWESNGQPENNYKTTPPVLDSDGSFFLYSKLTVDKSRWQQGNVFSCSVMHEALHNHYTQKSLSLSPGK	14.9	
SI-49R19 (bispecific antibody, Bispecific GNC: anti-CD3 scFv (αCD3-alt) at D1 and NKG2D at D2) heavy: not shown light: FLNSLFNQEVQIPLTESYCGPCPKNWICYKNNCYQFFDESKNWYESQASCMSQNASLLKVYSKEDQDLLKLVKSYHWMGLVHIPTNGSWQWEDGSILSPNLLTIIEMQKGDCALYASSFKGYIENCSTPNTYICMQRTVRTVAAPSVFIFPPSDEQLKSGTASVVCLLNNFYPREAKVQWKVDNALQSGNSQESVTEQDSKDSTYSLSSTLTLSKADYEKHKVYACEVTHQGLSSPVTKSFNRGEC	3.93	
B1		11.2
